{"source": "patent US20180002699", "proteins": {"B1": {"name": "recombinant full-length SMYD5 (SET and MYND domain-containing protein 5) (protein)", "chain": "MAASMCDVFSFCVGVAGRARVSVEVRFVSSAKGKGLFATQLIRKGETIFVERPLVAAQFLWNALYRYRACDHCLRALEKAEENAQRLTGKPGQVLPHPELCTVRKDLHQNCPHCQVMYCSAECRLAATEQYHQVLCPGPSQDDPLHPLNKLQEAWRSIHYPPETASIMLMARMVATVKQAKDKDRWIRLFSQFCNKTANEEEEIVHKLLGDKFKGQLELLRRLFTEALYEEAVSQWFTPDGFRSLFALVGTNGQGIGTSSLSQWVHACDTLELKPQDREQLDAFIDQLYKDIEAATGEFLNCEGSGLFVLQSCCNHSCVPNAETSFPENNFLLHVTALEDIKPGEEICISYLDCCQRERSRHSRHKILRENYLFVCSCPKCLAEADEPNVTSEEEEEEEEEEEGEPEDAELGDEMTDV"}}, "key": {"[1]": {"target": "histone H3 (histones isolated from HEK293T cells)"}, "[2]": {"target": "CDK9 (P-TEFb component), P50750", "sequence (P50750 whole entry)": "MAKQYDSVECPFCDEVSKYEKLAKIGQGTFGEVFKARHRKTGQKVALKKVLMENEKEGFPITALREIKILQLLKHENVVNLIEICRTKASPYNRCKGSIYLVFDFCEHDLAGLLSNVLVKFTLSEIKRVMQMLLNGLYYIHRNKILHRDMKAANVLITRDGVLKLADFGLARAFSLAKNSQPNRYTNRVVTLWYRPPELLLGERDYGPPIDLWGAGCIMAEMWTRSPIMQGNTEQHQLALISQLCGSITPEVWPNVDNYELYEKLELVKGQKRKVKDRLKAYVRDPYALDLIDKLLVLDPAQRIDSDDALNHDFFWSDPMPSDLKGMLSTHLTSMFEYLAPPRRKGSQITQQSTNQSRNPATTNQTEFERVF"}, "[3]": {"target": "histone H1 (purified human histones isolated from HEK293T cells), P07305", "sequence (P07305 whole entry, looked up)": "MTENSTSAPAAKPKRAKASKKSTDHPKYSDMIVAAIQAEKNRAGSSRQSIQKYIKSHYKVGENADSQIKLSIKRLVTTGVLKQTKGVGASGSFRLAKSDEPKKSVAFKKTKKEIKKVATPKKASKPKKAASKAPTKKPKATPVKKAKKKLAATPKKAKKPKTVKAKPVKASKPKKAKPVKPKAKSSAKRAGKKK"}, "[4]": {"target": "cyclin T1 (P-TEFb component), O60563", "sequence (O60563 whole entry)": "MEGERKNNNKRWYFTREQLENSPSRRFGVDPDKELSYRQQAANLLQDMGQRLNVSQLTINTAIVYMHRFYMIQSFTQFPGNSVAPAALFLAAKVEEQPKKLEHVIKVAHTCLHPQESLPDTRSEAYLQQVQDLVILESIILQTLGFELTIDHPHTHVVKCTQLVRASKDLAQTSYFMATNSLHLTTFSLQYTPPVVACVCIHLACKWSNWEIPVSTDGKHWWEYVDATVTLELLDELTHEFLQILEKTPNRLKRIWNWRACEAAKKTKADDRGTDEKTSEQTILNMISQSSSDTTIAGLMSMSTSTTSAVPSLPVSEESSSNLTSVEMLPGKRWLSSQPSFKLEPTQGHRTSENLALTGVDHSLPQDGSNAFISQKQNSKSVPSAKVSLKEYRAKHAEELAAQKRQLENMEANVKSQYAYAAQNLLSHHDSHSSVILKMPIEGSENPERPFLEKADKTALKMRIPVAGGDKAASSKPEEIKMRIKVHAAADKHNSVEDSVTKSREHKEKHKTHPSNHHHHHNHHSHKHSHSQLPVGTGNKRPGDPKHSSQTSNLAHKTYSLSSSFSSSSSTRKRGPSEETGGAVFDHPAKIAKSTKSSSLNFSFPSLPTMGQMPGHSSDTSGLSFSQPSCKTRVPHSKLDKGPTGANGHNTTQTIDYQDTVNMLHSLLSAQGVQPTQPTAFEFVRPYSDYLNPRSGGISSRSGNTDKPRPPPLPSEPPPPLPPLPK"}, "[5]": {"target": "T1, full-length synthetic Tat protein (aa 1-72)", "T1 chain": "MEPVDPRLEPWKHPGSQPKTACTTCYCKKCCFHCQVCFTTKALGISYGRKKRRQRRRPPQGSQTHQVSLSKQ"}}, "data": [{"protein": "B1", "values": [{"measurement": "in vitro methylation (3H-SAM, autoradiography)", "setting": "[1]", "value": "histones H3 and H1 were weakly and Tat strongly methylated by SMYD5"}, {"measurement": "in vitro methylation (3H-SAM, autoradiography)", "setting": "[2]", "value": "no methylation was detected for Re1A, Sp1, cyclin T1 and CDK9"}, {"measurement": "in vitro methylation (3H-SAM, autoradiography)", "setting": "[3]", "value": "histones H3 and H1 were weakly and Tat strongly methylated by SMYD5"}, {"measurement": "in vitro methylation (3H-SAM, autoradiography)", "setting": "NF-kB p65 (RelA), Q04206", "value": "no methylation was detected for Re1A, Sp1, cyclin T1 and CDK9"}, {"measurement": "in vitro methylation (3H-SAM, autoradiography)", "setting": "Sp1, P08047", "value": "no methylation was detected for Re1A, Sp1, cyclin T1 and CDK9"}, {"measurement": "in vitro methylation (3H-SAM, autoradiography)", "setting": "[4]", "value": "no methylation was detected for Re1A, Sp1, cyclin T1 and CDK9"}, {"measurement": "LC-MS/MS of in vitro methylation products (non-radiolabeled SAM)", "setting": "[5]", "value": "This analysis identified a single site, trimethylation of K41, identified in two distinct peptides (not shown). No mono or dimethylation at Tat K41 was observed."}, {"measurement": "in vitro methylation (3H-SAM, autoradiography)", "setting": "[5]", "value": "histones H3 and H1 were weakly and Tat strongly methylated by SMYD5"}]}]}
